Assay results as given in US20250262210A1 (TRUSTEES OF COLUMBIA UNIVERSITY IN THE CITY OF NEW YORK, published 2025).

Tests used:
Assay in all cases: IP/MS, LZTR1 wild type-FLAG, U87
ARHGEF40 = ARHGEF40 (human, UniProt Q8TER5 1-1519, limits assumed)
In short: (§1)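 Gel slices were reduced with 5 mM DTT, alkylated with 11 mM IAA and digested overnight at 37° C. with trypsin. Peptides were analysed on an Orbitrap Fusion Tribrid by LC-MS/MS.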

KDM5C = KDM5C (human, UniProt P41229 1-1560, limits assumed)
Sequence of KDM5C (P41229 whole entry): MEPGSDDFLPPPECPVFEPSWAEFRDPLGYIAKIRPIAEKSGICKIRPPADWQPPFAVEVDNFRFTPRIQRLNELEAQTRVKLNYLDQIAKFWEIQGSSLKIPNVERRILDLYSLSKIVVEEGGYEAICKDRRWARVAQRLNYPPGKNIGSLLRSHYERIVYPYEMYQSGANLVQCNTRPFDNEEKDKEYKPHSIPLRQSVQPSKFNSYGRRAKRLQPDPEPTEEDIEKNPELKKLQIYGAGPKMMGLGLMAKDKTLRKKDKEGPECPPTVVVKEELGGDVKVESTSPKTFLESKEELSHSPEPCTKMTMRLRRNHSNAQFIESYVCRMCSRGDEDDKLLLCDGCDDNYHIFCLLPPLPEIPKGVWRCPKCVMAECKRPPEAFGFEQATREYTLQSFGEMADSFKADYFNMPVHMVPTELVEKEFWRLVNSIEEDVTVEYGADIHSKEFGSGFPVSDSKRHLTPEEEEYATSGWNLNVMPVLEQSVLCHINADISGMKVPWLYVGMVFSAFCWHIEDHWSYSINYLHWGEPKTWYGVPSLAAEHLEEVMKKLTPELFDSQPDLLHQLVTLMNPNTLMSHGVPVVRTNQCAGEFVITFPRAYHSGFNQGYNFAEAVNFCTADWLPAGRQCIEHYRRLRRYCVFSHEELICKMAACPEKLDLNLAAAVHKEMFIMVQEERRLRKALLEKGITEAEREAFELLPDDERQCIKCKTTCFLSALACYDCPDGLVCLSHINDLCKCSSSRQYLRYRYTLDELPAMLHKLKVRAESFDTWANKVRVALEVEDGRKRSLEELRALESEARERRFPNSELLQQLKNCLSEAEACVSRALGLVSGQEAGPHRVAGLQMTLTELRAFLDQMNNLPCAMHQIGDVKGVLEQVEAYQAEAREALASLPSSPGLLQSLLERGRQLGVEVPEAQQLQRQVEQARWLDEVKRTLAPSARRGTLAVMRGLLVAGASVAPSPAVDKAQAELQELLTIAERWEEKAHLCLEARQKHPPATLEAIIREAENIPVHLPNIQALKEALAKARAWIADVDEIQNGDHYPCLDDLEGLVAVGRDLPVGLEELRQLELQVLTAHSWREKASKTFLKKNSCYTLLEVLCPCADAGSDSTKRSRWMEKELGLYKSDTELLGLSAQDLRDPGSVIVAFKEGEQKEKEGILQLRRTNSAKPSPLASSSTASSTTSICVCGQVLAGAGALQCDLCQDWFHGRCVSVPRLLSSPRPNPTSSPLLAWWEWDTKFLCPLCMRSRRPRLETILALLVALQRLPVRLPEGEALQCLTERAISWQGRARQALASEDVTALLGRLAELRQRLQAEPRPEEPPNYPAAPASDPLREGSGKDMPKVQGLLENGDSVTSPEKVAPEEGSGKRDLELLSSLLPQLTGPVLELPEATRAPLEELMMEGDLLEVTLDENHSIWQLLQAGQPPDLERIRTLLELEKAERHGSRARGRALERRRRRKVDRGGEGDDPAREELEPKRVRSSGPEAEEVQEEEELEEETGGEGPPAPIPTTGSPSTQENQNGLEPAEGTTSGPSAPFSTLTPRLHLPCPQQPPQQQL
In short: as §1

CTDP1 = biological target: T1, CTDP1 (human, UniProt Q9Y5B0 1-961, limits assumed)
T1 sequence (looked up): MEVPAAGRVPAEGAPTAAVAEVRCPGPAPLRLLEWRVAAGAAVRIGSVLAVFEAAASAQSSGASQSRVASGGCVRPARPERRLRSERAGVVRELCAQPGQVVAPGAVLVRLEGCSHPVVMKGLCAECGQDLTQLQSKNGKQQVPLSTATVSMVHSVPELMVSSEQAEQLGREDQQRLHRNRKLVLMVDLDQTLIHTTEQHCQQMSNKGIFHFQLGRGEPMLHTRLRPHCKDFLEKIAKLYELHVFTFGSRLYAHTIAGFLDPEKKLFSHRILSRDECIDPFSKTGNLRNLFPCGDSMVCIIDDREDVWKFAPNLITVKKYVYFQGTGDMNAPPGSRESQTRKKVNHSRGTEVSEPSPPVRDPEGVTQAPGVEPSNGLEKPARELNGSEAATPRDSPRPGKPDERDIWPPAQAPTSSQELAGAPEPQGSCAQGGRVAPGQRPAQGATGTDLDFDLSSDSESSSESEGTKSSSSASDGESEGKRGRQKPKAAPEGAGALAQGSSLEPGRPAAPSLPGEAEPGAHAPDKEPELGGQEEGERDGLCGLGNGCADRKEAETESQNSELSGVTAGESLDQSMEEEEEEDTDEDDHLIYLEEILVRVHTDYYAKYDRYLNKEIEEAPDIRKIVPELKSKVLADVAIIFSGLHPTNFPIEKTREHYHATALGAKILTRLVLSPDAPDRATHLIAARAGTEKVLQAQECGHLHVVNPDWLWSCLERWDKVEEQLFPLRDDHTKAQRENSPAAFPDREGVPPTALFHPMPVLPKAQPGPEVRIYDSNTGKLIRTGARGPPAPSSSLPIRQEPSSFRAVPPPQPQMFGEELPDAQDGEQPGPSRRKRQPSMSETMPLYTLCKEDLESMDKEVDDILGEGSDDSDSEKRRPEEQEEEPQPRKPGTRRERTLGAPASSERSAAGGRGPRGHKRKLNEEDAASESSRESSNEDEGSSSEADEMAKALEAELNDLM
In short: as §1

Measured: binding result

Sequence of ARHGEF40 (Q8TER5 whole entry, the tested form may be a part): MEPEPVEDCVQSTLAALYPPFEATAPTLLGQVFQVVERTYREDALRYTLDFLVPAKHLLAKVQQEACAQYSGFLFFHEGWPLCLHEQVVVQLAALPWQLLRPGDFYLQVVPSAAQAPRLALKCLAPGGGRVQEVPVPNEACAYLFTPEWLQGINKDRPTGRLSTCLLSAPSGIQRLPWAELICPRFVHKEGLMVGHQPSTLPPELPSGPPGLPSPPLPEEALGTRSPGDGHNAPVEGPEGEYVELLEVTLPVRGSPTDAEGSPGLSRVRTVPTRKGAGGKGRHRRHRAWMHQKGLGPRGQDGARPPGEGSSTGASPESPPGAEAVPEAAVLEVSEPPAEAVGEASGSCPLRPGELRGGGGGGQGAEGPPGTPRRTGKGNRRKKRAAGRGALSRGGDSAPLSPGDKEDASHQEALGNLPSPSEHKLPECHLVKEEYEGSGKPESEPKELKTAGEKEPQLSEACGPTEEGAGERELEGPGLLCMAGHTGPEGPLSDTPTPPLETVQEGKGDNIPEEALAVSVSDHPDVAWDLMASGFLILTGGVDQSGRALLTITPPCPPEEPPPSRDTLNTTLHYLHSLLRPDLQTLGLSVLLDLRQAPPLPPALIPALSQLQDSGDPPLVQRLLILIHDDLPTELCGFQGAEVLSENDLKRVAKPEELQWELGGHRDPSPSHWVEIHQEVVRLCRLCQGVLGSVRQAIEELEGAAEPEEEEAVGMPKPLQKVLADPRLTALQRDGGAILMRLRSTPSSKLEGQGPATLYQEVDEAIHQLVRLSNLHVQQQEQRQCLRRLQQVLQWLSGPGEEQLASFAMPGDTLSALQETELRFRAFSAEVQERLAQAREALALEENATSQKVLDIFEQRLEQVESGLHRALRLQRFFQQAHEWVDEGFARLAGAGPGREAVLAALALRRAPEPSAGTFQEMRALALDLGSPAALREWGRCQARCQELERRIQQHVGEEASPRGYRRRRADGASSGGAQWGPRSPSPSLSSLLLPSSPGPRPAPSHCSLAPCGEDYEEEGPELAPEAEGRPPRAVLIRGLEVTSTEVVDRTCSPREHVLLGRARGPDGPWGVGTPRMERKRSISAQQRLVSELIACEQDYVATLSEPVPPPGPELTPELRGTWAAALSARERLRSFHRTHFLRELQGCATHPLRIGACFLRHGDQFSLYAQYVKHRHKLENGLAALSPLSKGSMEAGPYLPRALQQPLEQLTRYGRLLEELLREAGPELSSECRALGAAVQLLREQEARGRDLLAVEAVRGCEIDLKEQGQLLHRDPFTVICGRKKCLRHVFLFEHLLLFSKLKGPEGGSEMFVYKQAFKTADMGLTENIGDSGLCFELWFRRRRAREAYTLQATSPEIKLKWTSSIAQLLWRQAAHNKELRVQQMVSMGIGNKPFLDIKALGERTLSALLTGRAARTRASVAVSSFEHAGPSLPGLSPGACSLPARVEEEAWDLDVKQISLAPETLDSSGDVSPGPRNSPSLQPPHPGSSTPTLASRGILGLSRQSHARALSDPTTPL

B1: LZTR1-FLAG (other, human, UniProt Q8N653 1-840, looked up)
chain: MAGPGSTGGQIGAAALAGGARSKVAPSVDFDHSCSDSVEYLTLNFGPFETVHRWRRLPPCDEFVGARRSKHTVVAYKDAIYVFGGDNGKTMLNDLLRFDVKDCSWCRAFTTGTPPAPRYHHSAVVYGSSMFVFGGYTGDIYSNSNLKNKNDLFEYKFATGQWTEWKIEGRLPVARSAHGATVYSDKLWIFAGYDGNARLNDMWTIGLQDRELTCWEEVAQSGEIPPSCCNFPVAVCRDKMFVFSGQSGAKITNNLFQFEFKDKTWTRIPTEHLLRGSPPPPQRRYGHTMVAFDRHLYVFGGAADNTLPNELHCYDVDFQTWEVVQPSSDSEVGGAEVPERACASEEVPTLTYEERVGFKKSRDVFGLDFGTTSAKQPTQPASELPSGRLFHAAAVISDAMYIFGGTVDNNIRSGEMYRFQFSCYPKCTLHEDYGRLWESRQFCDVEFVLGEKEECVQGHVAIVTARSRWLRRKITQARERLAQKLEQEAAPVPREAPGVAAGGARPPLLHVAIREAEARPFEVLMQFLYTDKIKYPRKGHVEDVLLIMDVYKLALSFQLCRLEQLCRQYIEASVDLQNVLVVCESAARLQLSQLKEHCLNFVVKESHFNQVIMMKEFERLSSPLIVEIVRRKQQPPPRTPLDQPVDIGTSLIQDMKAYLEGAGAEFCDITLLLDGHPRPAHKAILAARSSYFEAMFRSFMPEDGQVNISIGEMVPSRQAFESMLRYIYYGEVNMPPEDSLYLFAAPYYYGFYNNRLQAYCKQNLEMNVTVQNVLQILEAADKTQALDMKRHCLHIIVHQFTKVSKLPTLRSLSQQLLLDIIDSLASHISDKQCAELGADI
notes: Expressed in HEK 293T, HeLa or U87 cells; used as cell lysate; also called LZTR1 wild type-FLAG; LZTR1 WT; not shown: FLAG tag at the C-terminus
binds: ARHGEF40 | KDM5C | CTDP1
